Measurements reported in IntAct's records for PubMed 29892012.

B1: Ligand of Numb protein X 2 (Homo sapiens), Q8N448 (parent)
chain: MGTTSDEMVSVEQTSSSSLNPLCFECGQQHWTRENHLYNYQNEVDDDLVCHICLQPLLQPLDTPCGHTFCYKCLRNFLQEKDFCPLDRKRLHFKLCKKSSILVHKLLDKLLVLCPFSSVCKDVMQRCDLEAHLKNRCPGASHRRVALERRKTSRTQAEIENENGPTLLDPAGTLSPEADCLGTGAVPVERHLTSASLSTWSEEPGLDNPAFEESAGADTTQQPLSLPEGEITTIEIHRSNPYIQLGISIVGGNETPLINIVIQEVYRDGVIARDGRLLAGDQILQVNNYNISNVSHNYARAVLSQPCNTLHLTVLRERRFGNRAHNHSDSNSPREEIFQVALHKRDSGEQLGIKLVRRTDEPGVFILDLLEGGLAAQDGRLSSNDRVLAINGHDLKYGTPELAAQIIQASGERVNLTIARPGKPQPGNTIREAGNHSSSSQHHTPPPYYSRPSSHKDLTQCVTCQEKHITVKKEPHESLGMTVAGGRGSKSGELPIFVTSVPPHGCLARDGRIKRGDVLLNINGIDLTNLSHSEAVAMLKASAASPAVALKALEVQIVEEATQNAEEQPSTFSENEYDASWSPSWVMWLGLPSTLHSCHDIVLRRSYLGSWGFSIVGGYEENHTNQPFFIKTIVLGTPAYYDGRLKCGDMIVAVNGLSTVGMSHSALVPMLKEQRNKVTLTVICWPGSLV
B2: TBC1 domain family member 22B (Homo sapiens), Q9NU19 (parent)
chain: MAAENSKQFWKRSAKLPGSIQPVYGAQHPPLDPRLTKNFIKERSKVNTVPLKNKKASSFHEFARNTSDAWDIGDDEEEDFSSPSFQTLNSKVALATAAQVLENHSKLRVKPERSQSTTSDVPANYKVIKSSSDAQLSRNSSDTCLRNPLHKQQSLPLRPIIPLVARISDQNASGAPPMTVREKTRLEKFRQLLSSQNTDLDELRKCSWPGVPREVRPITWRLLSGYLPANTERRKLTLQRKREEYFGFIEQYYDSRNEEHHQDTYRQIHIDIPRTNPLIPLFQQPLVQEIFERILFIWAIRHPASGYVQGINDLVTPFFVVFLSEYVEEDVENFDVTNLSQDMLRSIEADSFWCMSKLLDGIQDNYTFAQPGIQKKVKALEELVSRIDEQVHNHFRRYEVEYLQFAFRWMNNLLMRELPLRCTIRLWDTYQSEPEGFSHFHLYVCAAFLIKWRKEILDEEDFQGLLMLLQNLPTIHWGNEEIGLLLAEAYRLKYMFADAPNHYRR
partner: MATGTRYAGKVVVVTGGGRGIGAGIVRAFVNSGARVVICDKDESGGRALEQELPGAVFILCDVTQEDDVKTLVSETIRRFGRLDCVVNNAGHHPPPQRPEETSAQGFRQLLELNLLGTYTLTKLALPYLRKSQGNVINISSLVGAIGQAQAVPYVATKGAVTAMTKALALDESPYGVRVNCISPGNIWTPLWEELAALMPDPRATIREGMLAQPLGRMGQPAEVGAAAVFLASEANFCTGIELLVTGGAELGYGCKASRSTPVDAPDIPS
B3: Transcription factor RFX3 (Homo sapiens), P48380 (parent)
chain: MQTSETGSDTGSTVTLQTSVASQAAVPTQVVQQVPVQQQVQQVQTVQQVQHVYPAQVQYVEGSDTVYTNGAIRTTTYPYTETQMYSQNTGGNYFDTQGSSAQVTTVVSSHSMVGTGGIQMGVTGGQLISSSGGTYLIGNSMENSGHSVTHTTRASPATIEMAIETLQKSDGLSTHRSSLLNSHLQWLLDNYETAEGVSLPRSTLYNHYLRHCQEHKLDPVNAASFGKLIRSIFMGLRTRRLGTRGNSKYHYYGIRVKPDSPLNRLQEDMQYMAMRQQPMQQKQRYKPMQKVDGVADGFTGSGQQTGTSVEQTVIAQSQHHQQFLDASRALPEFGEVEISSLPDGTTFEDIKSLQSLYREHCEAILDVVVNLQFSLIEKLWQTFWRYSPSTPTDGTTITESSNLSEIESRLPKAKLITLCKHESILKWMCNCDHGMYQALVEILIPDVLRPIPSALTQAIRNFAKSLEGWLSNAMNNIPQRMIQTKVAAVSAFAQTLRRYTSLNHLAQAARAVLQNTSQINQMLSDLNRVDFANVQEQASWVCQCDDNMVQRLETDFKMTLQQQSTLEQWAAWLDNVMMQALKPYEGRPSFPKAARQFLLKWSFYSSMVIRDLTLRSAASFGSFHLIRLLYDEYMFYLVEHRVAQATGETPIAVMGEFGDLNAVSPGNLDKDEGSEVESEMDEELDDSSEPQAKREKTELSQAFPVGCMQPVLETGVQPSLLNPIHSEHIVTSTQTIRQCSATGNTYTAV
partner: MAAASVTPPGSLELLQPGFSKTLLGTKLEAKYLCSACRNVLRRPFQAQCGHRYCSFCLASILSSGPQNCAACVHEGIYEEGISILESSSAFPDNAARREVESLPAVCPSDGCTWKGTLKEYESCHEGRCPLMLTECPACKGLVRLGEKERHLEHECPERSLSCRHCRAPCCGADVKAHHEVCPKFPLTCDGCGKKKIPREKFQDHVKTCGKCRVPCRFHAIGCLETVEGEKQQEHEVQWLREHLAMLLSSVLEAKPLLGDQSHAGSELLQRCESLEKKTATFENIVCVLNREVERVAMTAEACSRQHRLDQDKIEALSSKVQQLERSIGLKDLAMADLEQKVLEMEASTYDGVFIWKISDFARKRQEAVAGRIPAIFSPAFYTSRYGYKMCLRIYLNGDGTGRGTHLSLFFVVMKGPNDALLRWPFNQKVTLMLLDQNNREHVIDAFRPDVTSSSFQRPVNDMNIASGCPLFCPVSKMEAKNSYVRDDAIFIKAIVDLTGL
B4: Keratin, type I cuticular Ha8 (Homo sapiens), O76015 (parent)
chain: MTSSYSSSSCPLGCTMAPGARNVSVSPIDIGCQPGAEANIAPMCLLANVAHANRVRVGSTPLGRPSLCLPPTCHTACPLPGTCHIPGNIGICGAYGENTLNGHEKETMQFLNDRLANYLEKVRQLEQENAELEATLLERSKCHESTVCPDYQSYFHTIEELQQKILCSKAENARLIVQIDNAKLAADDFRIKLESERSLRQLVEADKCGTQKLLDDATLAKADLEAQQESLKEEQLSLKSNHEQEVKILRSQLGEKLRIELDIEPTIDLNRVLGEMRAQYEAMLETNRQDVEQWFQAQSEGISLQDMSCSEELQCCQSEILELRCTVNALEVERQAQHTLKDCLQNSLCEAEDRFGTELAQMQSLISNVEEQLSEIRADLERQNQEYQVLLDVKTRLENEIATYRNLLESEDCKLPCNPCSTSPSCVTAPCAPRPSCGPCTTCGPTCGASTTGSRF
partner: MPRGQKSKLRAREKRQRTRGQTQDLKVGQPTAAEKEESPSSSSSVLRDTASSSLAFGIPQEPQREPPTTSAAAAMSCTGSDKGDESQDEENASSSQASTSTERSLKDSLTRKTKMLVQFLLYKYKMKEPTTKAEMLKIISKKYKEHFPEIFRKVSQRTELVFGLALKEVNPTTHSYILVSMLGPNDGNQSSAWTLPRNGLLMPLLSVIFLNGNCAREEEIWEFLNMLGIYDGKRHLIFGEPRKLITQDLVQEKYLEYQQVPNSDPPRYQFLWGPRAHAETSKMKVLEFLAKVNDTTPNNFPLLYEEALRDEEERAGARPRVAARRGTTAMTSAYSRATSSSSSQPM
B5: Protein VAC14 homolog (Homo sapiens), Q08AM6 (parent)
chain: MNPEKDFAPLTPNIVRALNDKLYEKRKVAALEIEKLVREFVAQNNTVQIKHVIQTLSQEFALSQHPHSRKGGLIGLAACSIALGKDSGLYLKELIEPVLTCFNDADSRLRYYACEALYNIVKVARGAVLPHFNVLFDGLSKLAADPDPNVKSGSELLDRLLKDIVTESNKFDLVSFIPLLRERIYSNNQYARQFIISWILVLESVPDINLLDYLPEILDGLFQILGDNGKEIRKMCEVVLGEFLKEIKKNPSSVKFAEMANILVIHCQTTDDLIQLTAMCWMREFIQLAGRVMLPYSSGILTAVLPCLAYDDRKKSIKEVANVCNQSLMKLVTPEDDELDELRPGQRQAEPTPDDALPKQEGTASGGPDGSCDSSFSSGISVFTAASTERAPVTLHLDGIVQVLNCHLSDTAIGMMTRIAVLKWLYHLYIKTPRKMFRHTDSLFPILLQTLSDESDEVILKDLEVLAEIASSPAGQTDDPGPLDGPDLQASHSELQVPTPGRAGLLNTSGTKGLECSPSTPTMNSYFYKFMINLLKRFSSERKLLEVRGPFIIRQLCLLLNAENIFHSMADILLREEDLKFASTMVHALNTILLTSTELFQLRNQLKDLKTLESQNLFCCLYRSWCHNPVTTVSLCFLTQNYRHAYDLIQKFGDLEVTVDFLAEVDKLVQLIECPIFTYLRLQLLDVKNNPYLIKALYGLLMLLPQSSAFQLLSHRLQCVPNPELLQTEDSLKAAPKSQKADSPSIDYAELLQHFEKVQNKHLEVRHQRSGRGDHLDRRVVL
partner: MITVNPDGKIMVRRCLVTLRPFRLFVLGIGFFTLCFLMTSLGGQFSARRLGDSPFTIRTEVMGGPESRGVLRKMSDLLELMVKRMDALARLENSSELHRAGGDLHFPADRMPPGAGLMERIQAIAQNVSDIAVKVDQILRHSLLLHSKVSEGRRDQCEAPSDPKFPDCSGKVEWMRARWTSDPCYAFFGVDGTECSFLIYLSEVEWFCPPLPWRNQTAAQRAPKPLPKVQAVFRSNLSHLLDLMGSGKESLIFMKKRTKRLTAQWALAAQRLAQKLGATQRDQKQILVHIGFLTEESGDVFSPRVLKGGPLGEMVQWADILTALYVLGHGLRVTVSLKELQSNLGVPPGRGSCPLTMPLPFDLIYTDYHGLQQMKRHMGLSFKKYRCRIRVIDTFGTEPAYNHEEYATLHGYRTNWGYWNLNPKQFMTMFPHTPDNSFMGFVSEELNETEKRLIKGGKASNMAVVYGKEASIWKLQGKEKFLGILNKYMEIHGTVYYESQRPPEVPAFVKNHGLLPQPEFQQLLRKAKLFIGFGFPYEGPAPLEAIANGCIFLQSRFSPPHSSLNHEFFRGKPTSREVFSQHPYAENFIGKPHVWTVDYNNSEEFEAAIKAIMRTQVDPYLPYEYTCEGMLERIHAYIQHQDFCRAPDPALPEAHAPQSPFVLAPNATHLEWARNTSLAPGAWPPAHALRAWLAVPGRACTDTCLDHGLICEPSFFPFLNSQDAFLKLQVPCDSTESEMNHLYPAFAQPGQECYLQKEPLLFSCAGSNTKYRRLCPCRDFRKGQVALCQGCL

Variants of: B1
Details: with at2l2_human PHYKPL

Row | effect of a mutation on the interaction | Variant
1 | with no effect | P669A

Variants of: B1
Details: with ip6k2_human IP6K2, Q9UHH9
ip6k2_human IP6K2, Q9UHH9, sequence (Q9UHH9 whole entry): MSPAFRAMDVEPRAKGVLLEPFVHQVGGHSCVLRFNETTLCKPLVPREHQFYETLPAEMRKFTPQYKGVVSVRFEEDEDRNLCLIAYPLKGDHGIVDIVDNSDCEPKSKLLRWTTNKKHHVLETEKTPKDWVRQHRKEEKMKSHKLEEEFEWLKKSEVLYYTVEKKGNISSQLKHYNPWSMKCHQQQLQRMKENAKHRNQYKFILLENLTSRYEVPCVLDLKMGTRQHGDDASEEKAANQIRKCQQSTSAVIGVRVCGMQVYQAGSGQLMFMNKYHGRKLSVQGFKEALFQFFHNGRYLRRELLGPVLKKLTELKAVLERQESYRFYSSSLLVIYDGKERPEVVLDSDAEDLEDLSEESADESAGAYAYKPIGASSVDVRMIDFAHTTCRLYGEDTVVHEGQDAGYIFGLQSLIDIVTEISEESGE

Row | effect of a mutation on the interaction | Variant
2 | with no effect | P669A

Variants of: B1
Details: with atpb_human ATP5F1B

Row | effect of a mutation on the interaction | Variant
3 | with no effect | P669A

Variants of: B1
Details: with optn_human OPTN

Row | effect of a mutation on the interaction | Variant
4 | with no effect | P669A

Variants of: B1
Details: with tbb5_human TUBB

Row | effect of a mutation on the interaction | Variant
5 | with no effect | P669A

Variants of: B1
Details: with mk09_human MAPK9, P45984

Row | effect of a mutation on the interaction | Variant
6 | with no effect | P669A

Variants of: B1
Details: with ptcd3_human PTCD3, Q96EY7

Row | effect of a mutation on the interaction | Variant
7 | with no effect | P669A

Variants of: B1
Details: with lrc8e_human LRRC8E

Row | effect of a mutation on the interaction | Variant
8 | with no effect | P669A

Variants of: B2
Details: with dhb14_human HSD17B14, Q9BPX1

Row | effect of a mutation on the interaction | Variant
9 | disrupting interaction strength | A349T

Variants of: B3
Details: with traf2_human TRAF2, Q12933

Row | effect of a mutation on the interaction | Variant
10 | with no effect | S387C

Variants of: B4
Details: with magb4_human MAGEB4, O15481

Row | effect of a mutation on the interaction | Variant
11 | with no effect | D306A

Variants of: B4
Details: with magb4_human MAGEB4, O15481
Remark: another data set of the same source

Row | effect of a mutation on the interaction | Variant
12 | with no effect | N270K

Variants of: B5
Details: with mgt5b_human MGAT5B

Row | effect of a mutation on the interaction | Variant
13 | with no effect | A127S
